According to patent US20020146750A1 (published 2002):
Where a chain is given by its changes, count along the chain named.

B1: 7D1 (Fab, V domains shown)
VH: QVQLVQSGGGLVQPGGSLRLSCAASGFTFRSNAMGWVRQAPGKGLEWVSGISGSGGSTYYADSVKGRFTISRDNSKNTLYLQMNSLRAEDTAVYYCAKHTGGGVWDPIKHWGQGTLVTVSS
VL: EIVLTQSPLSLPVTPGEPASISCRSSQSLLHSNGYTYLDWYLQKPGQSPQLLIYSGSHRASGVPDRFSGSVSGTDFTLRISRVEAEDVGVYYCMQGLQSPFTFGPGTKVDIKR
notes: PH1 Fab variant; also called clone 7D1
B2: 7F9 (Fab, V domains shown)
VH: B1 VH with K109G, H110Y
VL: B1 VL
notes: PH1 Fab variant; also called clone 7F9
B3: 7F3 (Fab, V domains shown)
VH: B1 VH with K98I, H110Y
VL: B1 VL
notes: PH1 Fab variant; also called clone 7F3

Molecular target: T1, MUC1 (mucin-1) on MUC1-expressing cells (human, UniProt P15941 24-1255, underglycosylated / partially glycosylated tumor-associated glycoforms)
T1 construct: whole, on cells; also called cellular MUC1; tumor-associated MUC1
Experiment: flow cytometry, purified Fab dilutions on cellular MUC1 (ETA cells); data not shown
Protocol: Specific binding of the Fabs was measured by FACScalibur analysis (Becton Dickinson, Oxnard, Calif.) as described by Henderikx et al. (Cancer Res., 58: 4324-4332 (1998)). For affinity studies on cells with recombinant Fabs, the following flow cytometry experiment was carried out. Fab fragments were purified from the periplasmic fraction by IMAC and gel filtration as described in (Roovers et al., Br. J. Cancer, 78: 1407-1416 (1998)). Protein concentrations were measured with the bicinchoninic acid method (Sigma, St. Louis, Mo., USA). Two-fold serial dilutions of these Fabs were made and incubated, for each dilution point, with 2×10⁵/100 μl ETA cells (transfected 3T3 cells (Acres et al., J. Immunol., 14: 136-1443 (1993)). After trypsinisation, cells were washed one time in RPMI 10% FCS, 0.1% NaN₃ (incubation buffer). Then, cells were incubated with appropriate dilution for 1 hour at room temperature (RT), on a rotator. As negative controls, 2×10⁵ 3T3 mouse fibroblast cells were also incubated with the highest concentrations of antibodies. As a secondary negative control, ETA cells without primary antibody were used. Cells were spun down by centrifugation for 3 minutes at 611×g. Between incubations, cells were washed with incubation buffer. In a second incubation, anti-Myc antibody (6 μg/ml 9E10), directed against the Myc-tagged Fabs, was added for 30 minutes in incubation buffer at RT. After washing once, rabbit anti-mouse-FITC was used at RT for 30 minutes (Dako). Detection of bound antibodies was performed by means of flow cytometry on a FACSCalibur (Becton Dickinson, Oxnard), and results analyzed with the CELLQuest program (Becton Dickinson). Mean intensity was plotted against the concentration of the antibodies.
The relative ranking of the three clones from highest to lowest affinity (i.e., 7D1>7F3>7F9) appear to have stayed the same, but the positioning of both the wild type clone PH1 and best BIAcore mutant 5C8 appearef to be different from what was expected on the basis of the BIAcore affinity.

T1 sequence (P15941 24-1255): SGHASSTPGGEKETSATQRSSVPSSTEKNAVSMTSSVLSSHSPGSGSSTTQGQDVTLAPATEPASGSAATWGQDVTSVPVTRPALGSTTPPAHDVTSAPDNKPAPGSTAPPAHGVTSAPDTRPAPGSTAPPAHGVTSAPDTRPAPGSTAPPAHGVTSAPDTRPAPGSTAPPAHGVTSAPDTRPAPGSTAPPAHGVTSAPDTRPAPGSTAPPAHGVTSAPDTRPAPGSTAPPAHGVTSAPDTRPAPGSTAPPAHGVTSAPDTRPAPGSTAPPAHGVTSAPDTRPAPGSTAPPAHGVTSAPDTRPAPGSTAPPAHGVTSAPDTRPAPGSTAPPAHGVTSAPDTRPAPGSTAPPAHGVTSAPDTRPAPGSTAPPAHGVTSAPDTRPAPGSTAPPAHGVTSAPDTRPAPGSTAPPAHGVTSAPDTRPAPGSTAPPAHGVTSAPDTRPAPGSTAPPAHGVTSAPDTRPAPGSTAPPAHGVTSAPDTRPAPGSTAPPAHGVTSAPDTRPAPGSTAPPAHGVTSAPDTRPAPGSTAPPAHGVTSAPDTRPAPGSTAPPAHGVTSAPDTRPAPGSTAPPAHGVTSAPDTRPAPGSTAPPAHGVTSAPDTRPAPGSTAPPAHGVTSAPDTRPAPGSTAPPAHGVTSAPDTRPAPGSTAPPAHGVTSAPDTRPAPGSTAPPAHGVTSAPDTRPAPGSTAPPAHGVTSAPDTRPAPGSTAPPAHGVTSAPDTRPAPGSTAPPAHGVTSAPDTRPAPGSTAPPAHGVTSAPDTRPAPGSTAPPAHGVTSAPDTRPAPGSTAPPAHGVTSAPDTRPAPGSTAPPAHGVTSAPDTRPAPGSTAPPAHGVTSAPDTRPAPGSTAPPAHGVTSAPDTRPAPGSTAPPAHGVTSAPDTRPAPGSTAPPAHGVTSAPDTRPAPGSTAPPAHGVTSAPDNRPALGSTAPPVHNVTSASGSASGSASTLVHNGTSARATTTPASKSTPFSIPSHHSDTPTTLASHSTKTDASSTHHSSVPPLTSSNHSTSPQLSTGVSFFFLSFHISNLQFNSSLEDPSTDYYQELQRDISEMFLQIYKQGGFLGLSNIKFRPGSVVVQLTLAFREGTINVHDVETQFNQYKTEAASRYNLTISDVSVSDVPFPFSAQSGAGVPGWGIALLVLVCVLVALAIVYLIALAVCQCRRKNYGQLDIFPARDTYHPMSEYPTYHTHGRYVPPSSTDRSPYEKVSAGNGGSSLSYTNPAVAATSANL

Row | Binder | binding result
1 | B1 | binds
2 | B2 | binds
3 | B3 | binds
